From publication PMC3985441 (Bioscience Reports, 2014)

Target: T1, p110αEE^E545K/p85α complex (E545K oncogenic mutant PI3Kα) (human, UniProt P42336 1-1068; P27986 1-724, E545K)
T1 construct: p110α catalytic subunit of Class 1A PI3K, human, full length, somatic cancer mutation E545K in the helical domain; p85α regulatory subunit of Class 1A PI3K, human, full length; 1:1 heterodimer; also called E545K mutant; p110α^E545K/p85α; not shown: EE tag (glu-tag, 6 amino acids), C-terminal, kept; copies: 1 + 1
Assay: pull-down; GST fusion proteins (1 μg) on glutathione agarose, PI3Kα complexes (100–3200 ng) in solution; TBS with 10% (v/v) FBS, 1 h at 4°C; washes in TBS with 0.1% Tween 20; bound PI3Kα detected by immunoblot for p85α
Conditions: both partners purified

T1 sequence (P42336 whole entry E545K, chain 1 of 2, the tested form may be a part): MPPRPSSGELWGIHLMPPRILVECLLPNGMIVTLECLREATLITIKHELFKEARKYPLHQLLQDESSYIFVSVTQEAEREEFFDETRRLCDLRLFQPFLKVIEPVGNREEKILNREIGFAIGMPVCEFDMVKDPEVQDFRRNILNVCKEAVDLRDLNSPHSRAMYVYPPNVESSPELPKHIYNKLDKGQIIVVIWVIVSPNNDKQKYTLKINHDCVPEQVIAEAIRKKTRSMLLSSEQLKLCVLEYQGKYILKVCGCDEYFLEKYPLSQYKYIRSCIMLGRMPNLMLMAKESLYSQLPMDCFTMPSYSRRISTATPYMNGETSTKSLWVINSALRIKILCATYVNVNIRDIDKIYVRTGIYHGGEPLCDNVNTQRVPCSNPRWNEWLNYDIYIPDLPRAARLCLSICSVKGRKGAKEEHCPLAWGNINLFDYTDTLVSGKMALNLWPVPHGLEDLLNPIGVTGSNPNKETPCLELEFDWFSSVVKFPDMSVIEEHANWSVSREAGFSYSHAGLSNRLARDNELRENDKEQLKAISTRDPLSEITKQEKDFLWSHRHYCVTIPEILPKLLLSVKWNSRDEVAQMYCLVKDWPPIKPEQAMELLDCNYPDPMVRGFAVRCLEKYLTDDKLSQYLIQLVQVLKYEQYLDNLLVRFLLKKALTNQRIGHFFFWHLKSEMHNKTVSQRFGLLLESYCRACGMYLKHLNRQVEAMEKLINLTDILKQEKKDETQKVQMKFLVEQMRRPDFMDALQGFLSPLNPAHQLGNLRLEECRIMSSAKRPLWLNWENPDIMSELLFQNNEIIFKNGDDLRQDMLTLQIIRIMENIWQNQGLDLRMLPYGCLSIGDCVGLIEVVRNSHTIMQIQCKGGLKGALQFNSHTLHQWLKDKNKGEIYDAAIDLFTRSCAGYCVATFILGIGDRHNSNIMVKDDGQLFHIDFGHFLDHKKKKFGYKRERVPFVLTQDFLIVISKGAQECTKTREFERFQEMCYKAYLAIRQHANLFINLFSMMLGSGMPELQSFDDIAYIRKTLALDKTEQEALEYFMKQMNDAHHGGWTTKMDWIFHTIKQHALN
T1 sequence (P27986 whole entry, chain 2 of 2, the tested form may be a part): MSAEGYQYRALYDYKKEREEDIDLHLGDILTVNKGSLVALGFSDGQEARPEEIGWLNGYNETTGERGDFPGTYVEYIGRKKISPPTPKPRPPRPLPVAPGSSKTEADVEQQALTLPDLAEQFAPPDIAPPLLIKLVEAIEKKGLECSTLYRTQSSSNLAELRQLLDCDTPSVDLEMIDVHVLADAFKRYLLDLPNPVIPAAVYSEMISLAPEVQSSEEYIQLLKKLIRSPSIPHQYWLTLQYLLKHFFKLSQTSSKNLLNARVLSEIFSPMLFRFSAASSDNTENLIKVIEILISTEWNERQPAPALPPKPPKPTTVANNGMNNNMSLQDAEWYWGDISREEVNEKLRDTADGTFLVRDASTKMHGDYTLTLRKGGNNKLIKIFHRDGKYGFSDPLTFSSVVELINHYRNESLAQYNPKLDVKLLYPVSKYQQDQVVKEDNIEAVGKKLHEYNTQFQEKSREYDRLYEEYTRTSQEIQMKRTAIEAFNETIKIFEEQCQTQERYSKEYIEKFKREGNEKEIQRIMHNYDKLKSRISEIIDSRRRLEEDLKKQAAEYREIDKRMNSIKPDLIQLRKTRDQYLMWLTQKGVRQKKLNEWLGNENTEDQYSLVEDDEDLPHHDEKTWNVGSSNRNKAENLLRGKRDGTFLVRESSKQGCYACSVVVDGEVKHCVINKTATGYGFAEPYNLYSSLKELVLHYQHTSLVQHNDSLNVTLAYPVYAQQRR

B1: GST-V12 Cdc42 (constitutively active Cdc42Hs) (natural protein)
chain: not shown
notes: Cdc42Hs, human, constitutively active (V12) form; Plasmid courtesy of Professor Anne Ridley; also called GST-Cdc42; source: E. coli BL21 (DE3), purified (glutathione agarose)
Does B1 bind?
Result: binds
